According to patent US20260209345A1 (IOMX THERAPEUTICS, published 2026):

Tests used:
recombinant LILRB2 ECD [1] = target: T1, recombinant LILRB2 ECD (human, UniProt Q8N423 22-460); assay: competition ELISA (Example 3): biotinylated LILRB2 ECD with avidin-HRP pre-incubated with antibody 0.1-100 nM, residual binding to coated B2M-HLA-G-mouse IgG2a-Fc; blocked ligand HLA-G
T1 construct: also called biotinylated LILRB2 ECD

[2] = target: LILRB2 on primary monocytes (human) (UniProt Q8N423); assay: flow cytometry, primary monocytes
Chain of LILRB2 on primary monocytes (human) (Q8N423 22-597 limits assumed): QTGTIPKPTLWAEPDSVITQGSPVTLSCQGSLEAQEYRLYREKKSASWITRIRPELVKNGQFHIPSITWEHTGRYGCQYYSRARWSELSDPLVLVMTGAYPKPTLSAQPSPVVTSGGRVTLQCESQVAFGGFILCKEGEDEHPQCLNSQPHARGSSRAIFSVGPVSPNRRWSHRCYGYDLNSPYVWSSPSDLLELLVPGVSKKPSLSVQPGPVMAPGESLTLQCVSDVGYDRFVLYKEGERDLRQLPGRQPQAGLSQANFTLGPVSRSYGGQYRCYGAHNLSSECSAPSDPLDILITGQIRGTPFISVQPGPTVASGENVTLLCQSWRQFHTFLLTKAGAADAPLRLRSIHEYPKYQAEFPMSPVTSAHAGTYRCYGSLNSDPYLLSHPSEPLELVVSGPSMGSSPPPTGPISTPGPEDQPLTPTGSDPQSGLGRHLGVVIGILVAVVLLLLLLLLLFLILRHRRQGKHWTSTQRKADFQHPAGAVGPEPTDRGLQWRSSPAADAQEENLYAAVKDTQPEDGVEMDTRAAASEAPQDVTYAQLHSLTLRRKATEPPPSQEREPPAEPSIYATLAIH

[3] = target: LILRB2 on transiently transfected Expi293 cells (human) (UniProt Q8N423); assay: flow cytometry, transfected Expi293 cells
Chain of LILRB2 on transiently transfected Expi293 cells (human) (Q8N423 22-597 limits assumed): as above

recombinant LILRB2 ECD [4] = target: T1, recombinant LILRB2 ECD; assay: ELISA, LILRB2 ECD binding to HLA-G-Fc
Method: (§1) HLA-G inhibition was tested by ELISA. 384-well Maxisorp plates were coated with 2 ug/mL B2M-HLA-G fused to a mouse IgG2a-Fc and the plates were blocked with 2% (w/v) BSA in PBST. […] 15 ul of the antibody dilution series (300 nM to 0.3 nM) were mixed with 30 μL of the pre-mixed LILRB/Avidin-HRP solution (final antibody concentration 100 nM to 0.1 nM) and incubated for 1 h at room temperature. After three wash cycles with PBST, 20 μL of the antibody/LILRB/Avidin-HRP solution was transferred to the plate with immobilized HLA-G and incubated for 15 min at room temperature. After three wash cycles with PBST, residual LILRB binding to HLA-G was detected by developing the ELISA with TMB substrate.

recombinant LILRB2 ECD [5] = target: T1, recombinant LILRB2 ECD; assay: BLI, IgG on AHC sensor, ECD in solution
Method: (§2) Briefly, IgGs were captured on anti-human capture (AHC) biosensors (Sartorius). […] Subsequently, the sensors were dipped into 1× Kinetics Buffer to measure the dissociation over 420 s. All sensorgrams were double referenced against 1× Kinetics Buffer and unloaded […] sensors to subtract sensor drifts and potential reference binding of the analytes. The affinities were determined by applying a 1:1 binding model.

[6] = target: LILRB1 on transiently transfected Expi293 cells (human, UniProt Q8NHL6 24-650); assay: flow cytometry, transfected Expi293 cells
Chain of LILRB1 on transiently transfected Expi293 cells (Q8NHL6 24-650 limits assumed): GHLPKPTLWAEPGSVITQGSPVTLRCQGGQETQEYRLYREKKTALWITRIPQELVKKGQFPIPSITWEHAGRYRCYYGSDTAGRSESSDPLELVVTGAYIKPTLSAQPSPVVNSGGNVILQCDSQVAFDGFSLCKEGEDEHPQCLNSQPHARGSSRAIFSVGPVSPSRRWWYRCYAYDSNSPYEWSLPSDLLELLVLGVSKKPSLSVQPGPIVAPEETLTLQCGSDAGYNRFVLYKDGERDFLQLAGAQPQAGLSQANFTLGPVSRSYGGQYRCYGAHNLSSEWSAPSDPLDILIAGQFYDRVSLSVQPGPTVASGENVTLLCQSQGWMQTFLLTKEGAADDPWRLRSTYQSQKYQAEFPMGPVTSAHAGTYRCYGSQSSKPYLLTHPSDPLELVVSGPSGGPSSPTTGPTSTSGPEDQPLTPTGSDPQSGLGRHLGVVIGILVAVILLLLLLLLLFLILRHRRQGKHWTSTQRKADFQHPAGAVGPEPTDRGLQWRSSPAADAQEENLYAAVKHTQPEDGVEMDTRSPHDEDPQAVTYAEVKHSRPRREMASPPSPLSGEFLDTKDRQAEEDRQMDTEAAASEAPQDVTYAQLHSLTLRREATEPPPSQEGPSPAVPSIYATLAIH
Method: (§3) Non-transfected Expi293 cells were used as negative control. Cells were harvested and labeled with CellTraceViolet for multiplexing. […] Subsequently, cells were washed and stained with a secondary anti-human IgG labeled with AF647 for 30 minutes at 4° C. in the dark. Cells were washed again and mixed with 7-AAD viability dye before flow acquisition to test for surface binding.

[7] = target: LILRB2 on transiently transfected Expi293 cells (human, UniProt Q8N423 22-597); assay: flow cytometry, transfected Expi293 cells
Chain of LILRB2 on transiently transfected Expi293 cells (Q8N423 22-597 limits assumed): as the sequence (Q8N423 22-597 limits assumed) above
Method: as §3

[8] = target: T2, LILRA2 on transiently transfected Expi293 cells (human, UniProt Q8N149 24-483); assay: flow cytometry, transfected Expi293 cells
T2 construct: whole, on cells
T2 sequence (Q8N149 24-483): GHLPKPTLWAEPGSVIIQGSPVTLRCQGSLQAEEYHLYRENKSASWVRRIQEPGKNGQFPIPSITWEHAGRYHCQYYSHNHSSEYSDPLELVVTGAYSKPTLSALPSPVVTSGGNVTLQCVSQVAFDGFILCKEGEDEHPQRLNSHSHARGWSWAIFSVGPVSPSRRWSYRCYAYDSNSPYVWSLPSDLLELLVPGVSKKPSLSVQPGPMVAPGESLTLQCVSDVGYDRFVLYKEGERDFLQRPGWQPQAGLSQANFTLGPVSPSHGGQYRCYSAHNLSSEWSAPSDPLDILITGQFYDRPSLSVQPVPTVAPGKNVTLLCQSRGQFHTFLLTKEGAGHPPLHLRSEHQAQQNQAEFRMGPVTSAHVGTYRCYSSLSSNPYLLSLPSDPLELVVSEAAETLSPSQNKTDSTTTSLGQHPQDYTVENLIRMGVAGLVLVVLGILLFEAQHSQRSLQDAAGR
Method: as §3

recombinant LILRB1 ECD [9] = target: T3, recombinant LILRB1 ECD (human, UniProt Q8NHL6 24-461); assay: ELISA, LILRB1 ECD binding to HLA-G-Fc
T3 construct: also called biotinylated LILRB1 ECD
T3 sequence (Q8NHL6 24-461 limits assumed): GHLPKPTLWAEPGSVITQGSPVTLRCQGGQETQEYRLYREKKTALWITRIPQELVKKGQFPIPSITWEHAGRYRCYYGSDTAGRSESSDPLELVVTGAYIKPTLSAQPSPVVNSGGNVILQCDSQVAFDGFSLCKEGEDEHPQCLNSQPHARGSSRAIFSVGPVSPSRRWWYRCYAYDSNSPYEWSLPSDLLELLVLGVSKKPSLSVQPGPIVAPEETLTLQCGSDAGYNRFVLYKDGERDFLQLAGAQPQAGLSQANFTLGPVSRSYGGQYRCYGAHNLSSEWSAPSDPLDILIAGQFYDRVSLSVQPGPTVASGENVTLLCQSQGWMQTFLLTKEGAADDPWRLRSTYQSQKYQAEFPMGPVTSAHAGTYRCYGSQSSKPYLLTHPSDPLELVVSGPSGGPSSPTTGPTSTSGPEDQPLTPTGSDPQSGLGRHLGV
Method: as §1

recombinant LILRB1 ECD [10] = target: T3, recombinant LILRB1 ECD; assay: BLI, IgG on AHC sensor, ECD in solution
Method: as §2

recombinant LILRA3 [11] = target: T4, recombinant LILRA3 (human, UniProt Q8N6C8 24-439); assay: BLI, IgG on AHC sensor, ECD in solution; biochemical assay, monovalent KD on recombinant protein (Table 2): weak off-target binding, 575 nM
T4 construct: whole entry named; also called LILRA3 ECD; LILA3
T4 sequence (Q8N6C8 24-439 limits assumed): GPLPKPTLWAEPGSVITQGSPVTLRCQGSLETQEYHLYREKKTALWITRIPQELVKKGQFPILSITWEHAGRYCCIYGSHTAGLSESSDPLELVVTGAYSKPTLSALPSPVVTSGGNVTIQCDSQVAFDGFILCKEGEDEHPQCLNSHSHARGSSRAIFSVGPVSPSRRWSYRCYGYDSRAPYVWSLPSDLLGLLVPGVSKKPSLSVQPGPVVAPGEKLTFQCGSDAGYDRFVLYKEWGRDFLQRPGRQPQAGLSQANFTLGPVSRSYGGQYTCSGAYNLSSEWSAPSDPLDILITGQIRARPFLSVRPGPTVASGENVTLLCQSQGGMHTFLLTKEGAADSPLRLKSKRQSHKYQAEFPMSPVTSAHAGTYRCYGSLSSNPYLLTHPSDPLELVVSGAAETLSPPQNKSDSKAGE
Method: as §2

recombinant LILRA1 ECD [12] = target: T5, recombinant LILRA1 ECD (human, UniProt O75019 17-461); assay: BLI, IgG on AHC sensor, ECD in solution; biochemical assay, monovalent KD on recombinant protein (Table 2): weak off-target binding, 962 nM
T5 construct: whole canonical entry named; also called LILA1
T5 sequence (O75019 17-461 limits assumed): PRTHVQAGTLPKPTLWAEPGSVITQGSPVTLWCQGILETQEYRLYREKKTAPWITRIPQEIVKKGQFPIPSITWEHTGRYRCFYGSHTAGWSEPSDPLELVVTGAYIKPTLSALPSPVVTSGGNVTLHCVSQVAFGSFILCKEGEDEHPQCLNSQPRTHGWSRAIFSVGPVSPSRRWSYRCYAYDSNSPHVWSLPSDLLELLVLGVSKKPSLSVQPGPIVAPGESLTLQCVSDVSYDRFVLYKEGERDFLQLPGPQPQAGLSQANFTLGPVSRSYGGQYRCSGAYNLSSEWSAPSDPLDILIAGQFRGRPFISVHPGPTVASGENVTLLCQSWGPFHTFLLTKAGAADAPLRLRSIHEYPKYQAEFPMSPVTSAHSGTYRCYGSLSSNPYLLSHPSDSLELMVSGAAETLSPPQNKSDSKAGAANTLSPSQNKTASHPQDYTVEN
Method: as §2

[13] = target: LILRB2 on Jurkat reporter cells (ILT4/HLA-G Blockade Bioassay Kit, Promega) (human) (UniProt Q8N423); assay: cell-based or functional assay
Chain of LILRB2 on Jurkat reporter cells (ILT4/HLA-G Blockade Bioassay Kit, Promega) (human) (Q8N423 22-597 limits assumed): as the sequence (Q8N423 22-597 limits assumed) above

[14] = target: LILRA1 on transiently transfected Expi293 cells (human) (UniProt O75019); assay: flow cytometry, transfected Expi293 cells
Chain of LILRA1 on transiently transfected Expi293 cells (human) (O75019 17-489 limits assumed): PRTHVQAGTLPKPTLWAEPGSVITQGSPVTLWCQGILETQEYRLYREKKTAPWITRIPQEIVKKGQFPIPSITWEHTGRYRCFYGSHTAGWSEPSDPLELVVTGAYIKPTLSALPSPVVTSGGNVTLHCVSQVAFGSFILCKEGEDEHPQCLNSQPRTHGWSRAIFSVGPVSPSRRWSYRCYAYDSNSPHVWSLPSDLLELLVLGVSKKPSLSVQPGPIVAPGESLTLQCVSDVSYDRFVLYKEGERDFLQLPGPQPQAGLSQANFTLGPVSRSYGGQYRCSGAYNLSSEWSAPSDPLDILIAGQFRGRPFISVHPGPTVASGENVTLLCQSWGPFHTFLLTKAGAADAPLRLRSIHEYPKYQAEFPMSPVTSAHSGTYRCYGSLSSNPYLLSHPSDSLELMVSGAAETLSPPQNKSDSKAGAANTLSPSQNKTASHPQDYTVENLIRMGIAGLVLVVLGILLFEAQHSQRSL

[15] = target: LILRA3 on transiently transfected Expi293 cells (human) (UniProt Q8N6C8); assay: flow cytometry, transfected Expi293 cells
Chain of LILRA3 on transiently transfected Expi293 cells (human) (Q8N6C8 24-439 limits assumed): as the sequence (Q8N6C8 24-439 limits assumed) above

[16] = target: LILRB1 on transiently transfected Expi293 cells (human) (UniProt Q8NHL6); assay: flow cytometry, transfected Expi293 cells
Chain of LILRB1 on transiently transfected Expi293 cells (human) (Q8NHL6 24-650 limits assumed): as the sequence (Q8NHL6 24-650 limits assumed) above

recombinant LILRA1 ECD [17] = target: T5, recombinant LILRA1 ECD; assay: BLI, IgG on AHC sensor, ECD in solution
Method: as §2

recombinant LILRA3 [18] = target: T4, recombinant LILRA3; assay: BLI, IgG on AHC sensor, ECD in solution
Method: as §2

T1 sequence (Q8N423 22-460 limits assumed): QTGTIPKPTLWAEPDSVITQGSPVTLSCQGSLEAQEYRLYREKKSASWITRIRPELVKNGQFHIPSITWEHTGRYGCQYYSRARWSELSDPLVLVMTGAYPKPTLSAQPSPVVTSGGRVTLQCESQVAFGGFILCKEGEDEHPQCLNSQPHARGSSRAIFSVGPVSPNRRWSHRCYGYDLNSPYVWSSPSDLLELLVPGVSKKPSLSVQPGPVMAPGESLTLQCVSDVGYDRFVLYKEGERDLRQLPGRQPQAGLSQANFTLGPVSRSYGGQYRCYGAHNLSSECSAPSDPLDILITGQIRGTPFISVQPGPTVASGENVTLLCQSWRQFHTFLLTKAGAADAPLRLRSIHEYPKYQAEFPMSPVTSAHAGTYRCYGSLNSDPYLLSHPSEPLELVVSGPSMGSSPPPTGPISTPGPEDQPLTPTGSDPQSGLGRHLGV

With “Ref065 [IO-108, LILRB2 specific] (antibody)” the IC50 (read off the curve) (recombinant LILRB2 ECD [1]) was 3 nM.

B1: Ref047 [MK-4830, LILRB2 specific] (antibody, from another filing, V domains shown)
VH: EVQLQQWGAGLLKPSETLSLTCAVYGGSFSGYYWSWIRQPPGKGLEWIGEINHAGSTNYNPSLKSRVTISVDTSKNQFSLKLSSVTAADTAVYYCARLPTRWVTTRYFDLWGRGTLVTVSS
VL: ESVLTQPPSVSGAPGQRVTISCTGSSSNIGAGYDVHWYQQLPGTAPKLLIYGDSNRPSGVPDRFSVSKSGASASLAITGLQAEDEADYYCQSFDNSLSAYVFGGGTQLTVL
With B1 the EC50 [2] was 1 nM, the EC50 [3] was 1.7 nM and the IC50 (recombinant LILRB2 ECD [4]) was 3.1 nM. For the same molecule, the Kd (recombinant LILRB2 ECD [5]) was 3.4 nM.

B2: A-045 (antibody, V domains shown)
VH: QVQLVQSGAEVKKPGSSVKVSCKASGGTFQSQAFAWVRQAPGQGLEWMGSIIPGFSTANYAQKFQGRVTITADESTSTAYMELSSLRSEDTAVYYCAKDLGTYSSGWPYYYGMDVWGQGTTVTVSS
VL: SYELTQPPSVSVSPGQTASITCSGDKLGDKYASWYQQKPGQSPVLVIYQDSKRPSGIPERFSGSNSGNTATLTISGTQAEDEADYYCQLTHLTIYVFGGGTKLTVL
notes: tested as IgG; HC of A-010 and LC of A-036
B2 was tested, and the EC50 [6] was 1.5 nM, the EC50 [7] was 1.3 nM and the binding result [8] was “no binding”. For the same molecule, the IC50 (recombinant LILRB1 ECD [9]) was 2.1 nM, the IC50 (recombinant LILRB2 ECD [4]) was 3.5 nM and the Kd (recombinant LILRB2 ECD [5]) was 2.8 nM. For the same molecule, the Kd (recombinant LILRB1 ECD [10]) was 2.3 nM, the Kd (recombinant LILRA3 [11]) was 575 nM and the Kd (recombinant LILRA1 ECD [12]) was 962 nM.

B3: Ref062 [NGM707, cross-specific] (antibody, from another filing, V domains shown)
VH: QVQLVQSGAEVKKPGASVKVSCKASGYTFTDYYINWVRQAPGQGLEWMGNVNPNDGGTTYNQKFKGRVTMTTDTSTSTAYMELRSLRSDDTAVYYCARREIYFYGTIYYYAMDYWGQGTLVTVSS
VL: DIQLTQSPSFLSASVGDRVTITCRASESVDYYGNSFMYWYQQKPGKAPKLLIYFASNLESGVPSRFSGSGSGTEFTLTISSLQPEDFATYYCQQNNEDPWTFGGGTKVEIKR
B3 gave a luminescence of LILRB2-expressing Jurkat reporter cells with HLA-G expressing APC/CHO-K1 cells (ILT4/HLA-G Blockade Bioassay) [13] of 0.9 nM, an EC50 [14] of 3.7 nM and an EC50 [15] of 7.8 nM. The EC50 [16] was 9.1 nM, the EC50 [3] was 17.3 nM and the IC50 (recombinant LILRB1 ECD [9]) was 5.7 nM. It also gave an IC50 (recombinant LILRB2 ECD [4]) of 4.7 nM, a Kd (recombinant LILRB2 ECD [5]) of 0.4 nM and a Kd (recombinant LILRB1 ECD [10]) of 0.5 nM. For the same molecule, the Kd (recombinant LILRA1 ECD [17]) was 0.6 nM and the Kd (recombinant LILRA3 [18]) was 1.4 nM.

B4: A-039 (antibody, V domains shown)
VH: QVQLVQSGAEVKKPGSSVKVSCKASGGTFSSYAISWVRQAPGQGLEWMGGIIPIFGTANYAQKFQGRVTITADESTSTAYMELSSLRSEDTAVYYCAKGPPVGSSSWYTDWYFDLWGRGTLVTVSS
VL: SYELTQPPSVSVSPGQTASITCSGDKLGDKYASWYQQKPGQSPVLVIYQDSKRPSGIPERFSGSNSGNTATLTISGTQAEDEADYYCALYGGGHTVVFGGGTKLTVL
notes: tested as IgG
B4 showed an IC50 (recombinant LILRB1 ECD [9]) of 2 nM, an IC50 (recombinant LILRB2 ECD [4]) of 2.4 nM and a Kd (recombinant LILRB2 ECD [5]) of 13.7 nM. For the same molecule, the Kd (recombinant LILRB1 ECD [10]) was 21.6 nM, the Kd (recombinant LILRA1 ECD [17]) was 1030 nM and the Kd (recombinant LILRA3 [18]) was 1550 nM.

B5: A-038 (antibody, V domains shown)
VH: QVQLVQSGAEVKKPGSSVKVSCKASGGTFSSYAISWVRQAPGQGLEWMGGIIPIFGTANYAQKFQGRVTITADESTSTAYMELSSLRSEDTAVYYCAKGPPVGSSSWYTDWYFDLWGRGTLVTVSS
VL: SYELTQPPSVSVSPGQTASITCSGDKLGDKYASWYQQKPGQSPVLVIYQDSKRPSGIPERFSGSNSGNTATLTISGTQAEDEADYYCSLYGAGHTVVFGGGTKLTVL
notes: tested as IgG
With B5 the IC50 (recombinant LILRB1 ECD [9]) was 2.2 nM, the IC50 (recombinant LILRB2 ECD [4]) was 3.4 nM and the Kd (recombinant LILRB2 ECD [5]) was 4.8 nM. For the same molecule, the Kd (recombinant LILRB1 ECD [10]) was 6.7 nM, the Kd (recombinant LILRA1 ECD [17]) was 209 nM and the Kd (recombinant LILRA3 [18]) was 448 nM.

B6: A-048 (antibody, V domains shown)
VH: QVQLVQSGAEVKKPGSSVKVSCKASGYTFSKSAMSWVRQAPGQGLEWMGGIVPKFHTSVYAQKFQGRVTITADESTSTAYMELSSLRSEDTAVYYCAKGPPVGSSSWYTDWYFDLWGRGTLVTVSS
VL: SYELTQPPSVSVSPGQTASITCSGDKLGDKYASWYQQKPGQSPVLVIYQDSKRPSGIPERFSGSNSGNTATLTISGTQAEDEADYYCALYGGGHTVVFGGGTKLTVL
notes: tested as IgG
B6 was tested, and the IC50 (recombinant LILRB1 ECD [9]) was 2 nM, the IC50 (recombinant LILRB2 ECD [4]) was 4.1 nM and the Kd (recombinant LILRB2 ECD [5]) was 5.6 nM. The Kd (recombinant LILRB1 ECD [10]) was 8.7 nM, the Kd (recombinant LILRA1 ECD [17]) was 1070 nM and the Kd (recombinant LILRA3 [18]) was 1970 nM.

B7: A-040 (antibody, V domains shown)
VH: QVQLVQSGAEVKKPGSSVKVSCKASGGTFSSYAISWVRQAPGQGLEWMGGIIPIFGTANYAQKFQGRVTITADESTSTAYMELSSLRSEDTAVYYCAKGPPVGSSSWYTDWYFDLWGRGTLVTVSS
VL: SYELTQPPSVSVSPGQTASITCSGDKLGDKYASWYQQKPGQSPVLVIYQDSKRPSGIPERFSGSNSGNTATLTISGTQAEDEADYYCSLYGPAHTGVFGGGTKLTVL
notes: tested as IgG
B7 was tested, and the IC50 (recombinant LILRB1 ECD [9]) was 2.1 nM, the IC50 (recombinant LILRB2 ECD [4]) was 7 nM and the Kd (recombinant LILRB2 ECD [5]) was 0.3 nM. The Kd (recombinant LILRB1 ECD [10]) was 6.6 nM, the Kd (recombinant LILRA1 ECD [17]) was 51.6 nM and the Kd (recombinant LILRA3 [18]) was 345 nM.

B8: A-041 (antibody, V domains shown)
VH: QVQLVQSGAEVKKPGSSVKVSCKASGGTFSSYAISWVRQAPGQGLEWMGGIIPIFGTANYAQKFQGRVTITADESTSTAYMELSSLRSEDTAVYYCAKGPPVGSSSWYTDWYFDLWGRGTLVTVSS
VL: SYELTQPPSVSVSPGQTASITCSGDKLGDKYASWYQQKPGQSPVLVIYQDSKRPSGIPERFSGSNSGNTATLTISGTQAEDEADYYCSSYGSGLTVVFGGGTKLTVL
notes: tested as IgG
Work on B8 yielded an IC50 (recombinant LILRB1 ECD [9]) of 1.5 nM, an IC50 (recombinant LILRB2 ECD [4]) of 4.4 nM and a Kd (recombinant LILRB2 ECD [5]) of 5.8 nM. For the same molecule, the Kd (recombinant LILRB1 ECD [10]) was 17.5 nM, the Kd (recombinant LILRA1 ECD [17]) was 242 nM and the Kd (recombinant LILRA3 [18]) was 465 nM.
